Reference: patent US20180009871A1 (INTARCIA THERAPEUTICS, published 2018)
Where no end group is shown, it is not given here. [ ]: non-standard residue; d: D form. Aib = CC(C)(N)C(=O)O

B1: Compound A75 (peptide)
peptide: WSHGTFTSDYSKYLD[Aib]KRAQEFV[Aib]WLEDEPSSGAPPPS-OH
modifications: N-terminus assumed
SMILES: CC(C)C[C@H](NC(=O)[C@H](Cc1ccc(O)cc1)NC(=O)[C@H](CCCCN)NC(=O)[C@H](CO)NC(=O)[C@H](Cc1ccc(O)cc1)NC(=O)[C@H](CC(=O)O)NC(=O)[C@H](CO)NC(=O)[C@@H](NC(=O)[C@H](Cc1ccccc1)NC(=O)[C@@H](NC(=O)CNC(=O)[C@H](Cc1c[nH]cn1)NC(=O)[C@H](CO)NC(=O)[C@@H](N)Cc1c[nH]c2ccccc12)[C@@H](C)O)[C@@H](C)O)C(=O)N[C@@H](CC(=O)O)C(=O)NC(C)(C)C(=O)N[C@@H](CCCCN)C(=O)N[C@@H](CCCNC(=N)N)C(=O)N[C@@H](C)C(=O)N[C@@H](CCC(N)=O)C(=O)N[C@@H](CCC(=O)O)C(=O)N[C@@H](Cc1ccccc1)C(=O)N[C@H](C(=O)NC(C)(C)C(=O)N[C@@H](Cc1c[nH]c2ccccc12)C(=O)N[C@@H](CC(C)C)C(=O)N[C@@H](CCC(=O)O)C(=O)N[C@@H](CC(=O)O)C(=O)N[C@@H](CCC(=O)O)C(=O)N1CCC[C@H]1C(=O)N[C@@H](CO)C(=O)N[C@@H](CO)C(=O)NCC(=O)N[C@@H](C)C(=O)N1CCC[C@H]1C(=O)N1CCC[C@H]1C(=O)N1CCC[C@H]1C(=O)N[C@@H](CO)C(=O)O)C(C)C
B2: Compound A77 (peptide)
peptide: YSHGTFTSDYSKYLD[Aib]KTAQEFV[Aib]WLEDEPSSGAPPPS-OH
modifications: N-terminus assumed
SMILES: CC(C)C[C@H](NC(=O)[C@H](Cc1ccc(O)cc1)NC(=O)[C@H](CCCCN)NC(=O)[C@H](CO)NC(=O)[C@H](Cc1ccc(O)cc1)NC(=O)[C@H](CC(=O)O)NC(=O)[C@H](CO)NC(=O)[C@@H](NC(=O)[C@H](Cc1ccccc1)NC(=O)[C@@H](NC(=O)CNC(=O)[C@H](Cc1c[nH]cn1)NC(=O)[C@H](CO)NC(=O)[C@@H](N)Cc1ccc(O)cc1)[C@@H](C)O)[C@@H](C)O)C(=O)N[C@@H](CC(=O)O)C(=O)NC(C)(C)C(=O)N[C@@H](CCCCN)C(=O)N[C@H](C(=O)N[C@@H](C)C(=O)N[C@@H](CCC(N)=O)C(=O)N[C@@H](CCC(=O)O)C(=O)N[C@@H](Cc1ccccc1)C(=O)N[C@H](C(=O)NC(C)(C)C(=O)N[C@@H](Cc1c[nH]c2ccccc12)C(=O)N[C@@H](CC(C)C)C(=O)N[C@@H](CCC(=O)O)C(=O)N[C@@H](CC(=O)O)C(=O)N[C@@H](CCC(=O)O)C(=O)N1CCC[C@H]1C(=O)N[C@@H](CO)C(=O)N[C@@H](CO)C(=O)NCC(=O)N[C@@H](C)C(=O)N1CCC[C@H]1C(=O)N1CCC[C@H]1C(=O)N1CCC[C@H]1C(=O)N[C@@H](CO)C(=O)O)C(C)C)[C@@H](C)O
B3: Compound A76 (peptide)
peptide: YSHGTFTSDYSKYLD[Aib]KAAQEFV[Aib]WLEDEPSSGAPPPS-OH
modifications: N-terminus assumed
SMILES: CC(C)C[C@H](NC(=O)[C@H](Cc1ccc(O)cc1)NC(=O)[C@H](CCCCN)NC(=O)[C@H](CO)NC(=O)[C@H](Cc1ccc(O)cc1)NC(=O)[C@H](CC(=O)O)NC(=O)[C@H](CO)NC(=O)[C@@H](NC(=O)[C@H](Cc1ccccc1)NC(=O)[C@@H](NC(=O)CNC(=O)[C@H](Cc1c[nH]cn1)NC(=O)[C@H](CO)NC(=O)[C@@H](N)Cc1ccc(O)cc1)[C@@H](C)O)[C@@H](C)O)C(=O)N[C@@H](CC(=O)O)C(=O)NC(C)(C)C(=O)N[C@@H](CCCCN)C(=O)N[C@@H](C)C(=O)N[C@@H](C)C(=O)N[C@@H](CCC(N)=O)C(=O)N[C@@H](CCC(=O)O)C(=O)N[C@@H](Cc1ccccc1)C(=O)N[C@H](C(=O)NC(C)(C)C(=O)N[C@@H](Cc1c[nH]c2ccccc12)C(=O)N[C@@H](CC(C)C)C(=O)N[C@@H](CCC(=O)O)C(=O)N[C@@H](CC(=O)O)C(=O)N[C@@H](CCC(=O)O)C(=O)N1CCC[C@H]1C(=O)N[C@@H](CO)C(=O)N[C@@H](CO)C(=O)NCC(=O)N[C@@H](C)C(=O)N1CCC[C@H]1C(=O)N1CCC[C@H]1C(=O)N1CCC[C@H]1C(=O)N[C@@H](CO)C(=O)O)C(C)C
B4: Compound A68 (peptide)
peptide: YSHGTFTSDYSKYLD[Aib]ARAQEFV[Aib]WLEDEPKSKEPPPS-NH2
modifications: N-terminus assumed
SMILES: CC(C)C[C@H](NC(=O)[C@H](Cc1ccc(O)cc1)NC(=O)[C@H](CCCCN)NC(=O)[C@H](CO)NC(=O)[C@H](Cc1ccc(O)cc1)NC(=O)[C@H](CC(=O)O)NC(=O)[C@H](CO)NC(=O)[C@@H](NC(=O)[C@H](Cc1ccccc1)NC(=O)[C@@H](NC(=O)CNC(=O)[C@H](Cc1c[nH]cn1)NC(=O)[C@H](CO)NC(=O)[C@@H](N)Cc1ccc(O)cc1)[C@@H](C)O)[C@@H](C)O)C(=O)N[C@@H](CC(=O)O)C(=O)NC(C)(C)C(=O)N[C@@H](C)C(=O)N[C@@H](CCCNC(=N)N)C(=O)N[C@@H](C)C(=O)N[C@@H](CCC(N)=O)C(=O)N[C@@H](CCC(=O)O)C(=O)N[C@@H](Cc1ccccc1)C(=O)N[C@H](C(=O)NC(C)(C)C(=O)N[C@@H](Cc1c[nH]c2ccccc12)C(=O)N[C@@H](CC(C)C)C(=O)N[C@@H](CCC(=O)O)C(=O)N[C@@H](CC(=O)O)C(=O)N[C@@H](CCC(=O)O)C(=O)N1CCC[C@H]1C(=O)N[C@@H](CCCCN)C(=O)N[C@@H](CO)C(=O)N[C@@H](CCCCN)C(=O)N[C@@H](CCC(=O)O)C(=O)N1CCC[C@H]1C(=O)N1CCC[C@H]1C(=O)N1CCC[C@H]1C(=O)N[C@@H](CO)C(N)=O)C(C)C

Legend:
[1] = target: human glucagon receptor (GCGR) (human, UniProt P47871 26-477); assay: cell-based or functional assay
[2] = target: human GLP-1 receptor (GLP-1R) (human, UniProt P43220 24-463); assay: cell-based or functional assay
human GLP-1 receptor (GLP-1R), sequence (P43220 24-463): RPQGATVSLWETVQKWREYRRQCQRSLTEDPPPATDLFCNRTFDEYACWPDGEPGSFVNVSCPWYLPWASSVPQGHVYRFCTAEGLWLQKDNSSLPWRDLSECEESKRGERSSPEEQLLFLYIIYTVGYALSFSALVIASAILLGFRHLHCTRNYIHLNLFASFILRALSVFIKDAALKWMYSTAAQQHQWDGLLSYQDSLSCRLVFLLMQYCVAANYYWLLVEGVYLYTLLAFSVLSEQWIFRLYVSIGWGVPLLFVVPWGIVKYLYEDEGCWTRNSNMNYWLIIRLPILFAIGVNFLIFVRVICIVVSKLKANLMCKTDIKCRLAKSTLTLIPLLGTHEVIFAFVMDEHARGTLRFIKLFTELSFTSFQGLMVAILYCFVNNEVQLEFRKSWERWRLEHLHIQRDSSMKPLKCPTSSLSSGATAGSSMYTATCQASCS

Binder	hGCGR pEC50 (cAMP) [1]	hGLP1 pEC50 (cAMP) [2]
YSHGTFTSDYSKYLDSARAQEFVKWLEDEPKSKSPPPS-NH2 [Compound A73]	11.7 pEC50	< 9 pEC50
YSHGTFTSDYSKYLDSARAQEFVKWLEDEPKSKSPPPS-OH [Compound A70]	12 pEC50	< 9 pEC50
YSHGTFTSDYSKYLDSARAQEFVKWLEDEPKSKEPPPS-OH [Compound A69]	11.8 pEC50	< 9 pEC50
YSHGTFTSDYSKYLDSARAQEFVKWLEDEPKSKEPPPS-NH2 [Compound A72]	12.1 pEC50	< 9 pEC50
B1	11.3 pEC50	< 9 pEC50
B2	11.5 pEC50	< 9 pEC50
B3	12.7 pEC50	< 9 pEC50
YSHGTFTSDYSKYLDSARAQEFVKWLEDEPKSKAPPPS-NH2 [Compound A74]	11.6 pEC50	< 9 pEC50
YSHGTFTSDYSKYLDSARAQEFVKWLEDEPKSKAPPPS-OH [Compound A71]	11.7 pEC50	< 9 pEC50
B4	11.3 pEC50	< 9 pEC50
